The values below come from article PMC2853223 (ACS chemical biology, 2009).

Sequences and labels used below:
T1: PikAIII ACPdd (N-terminally His-tagged discrete C-terminal docking domain of PikAIII) (UniProt Q9ZGI3 1479-1562)
T1 sequence (looked up): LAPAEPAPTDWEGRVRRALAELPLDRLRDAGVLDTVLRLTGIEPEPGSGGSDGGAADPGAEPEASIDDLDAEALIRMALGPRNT

B1: P3P4dock (amino acids 1534-1562 of PikAIII ACPdd fused to amino acids 1-37 of the KSdd of PikAIV) (other)
chain: SNADPGAEPEASIDDLDAEALIRMALGPRNTMTSSNEQLVDALRASLKENEELRKESRRRADRRQEPM
B2: PikAIV KSdd residues 1-37 (the PikAIV part of P3P4dock) (domain or fragment, UniProt Q9ZGI2 1-37, looked up)
chain: MTSSNEQLVDALRASLKENEELRKESRRRADRRQEPM
B3: PikAIII ACPdd-FL (PikAIII ACPdd with an added C-terminal cysteine labelled with BODIPY-FL) (domain or fragment)
chain: LAPAEPAPTDWEGRVRRALAELPLDRLRDAGVLDTVLRLTGIEPEPGSGGSDGGAADPGAEPEASIDDLDAEALIRMALGPRNTC
modifications: BODIPY-FL (iodoacetamide) on the added C-terminal cysteine

The data set “crystal structure” concerns the molecule itself. The data set is described as follows: crystal structure.
In data set [1] the target is B2. The data set is described as follows: crystal structure.
Data set [2] has as its target T1, PikAIII ACPdd (N-terminally His-tagged …). As to the kind of experiment: SPR.
The target in another data set is PikAIV full module (post-translational modification of its ACP domain (grown in BAP1 E. coli cells)). As to the kind of experiment: fluorescence polarisation. In general terms: Polarisation of emitted light reports the rotation of a fluorescent probe.

Take B1: the binding result in the data set “crystal structure” is “binds”.
Consider ADPGAEPEASIDDLDAEALIRMALGPRNT (domain or fragment, UniProt Q9ZGI3 1534-1562, looked up) [PikAIII ACPdd residues 1534-1562 (the PikAIII part of P3P4dock)], for which the binding result in data set [1] is reported as “binds”.
Broadly, the Kd is the concentration at which binding is half-saturated. Higher therefore signals weaker binding. Broadly, the koff is the first-order rate constant of dissociation. The kon is a measure of how fast the partners come together. Lower therefore signals slow association. With MTSSNEQLVDALRASLKENEELRKESRRRADRRQEPM (domain or fragment, UniProt Q9ZGI2 1-37, looked up) [PikAIV KSdd (discrete N-terminal docking domain of PikAIV, tagless)], in data set [2], binding was characterised by a dissociation constant (Kd) of 73 ± 43 µM, the koff amounted to 0.21 ± 0.03 s⁻¹ and the kon stood at 3000 ± 1800 M⁻¹ s⁻¹.
On to B2, for which the binding result in “crystal structure” is “binds”.
As to B3, the equilibrium dissociation constant (Kd) with PikAIV full module was determined as 5 ± 1 µM.
